Reference: the supplement of paper PMC7877785
± gives the uncertainty stated by the source.

Assay: self-splicing fitness, log relative to wild type (ln ratio); higher = more splicing; Tetrahymena group I intron in knt gene, E. coli kanamycin selection, DiMSum; sequences stand for … in CUCUCU…GGAGGGAAAAGUUAUCAGGCAUGCACCUGGUAGCUAGUCUUUAAACCAAUAGAUUGCAUCGGUUUAAAAGGCAAGACCGUCAAAUUGCGGGAAAGGGGUCAACAGCCGUUCAGUACCAAGUCUCAGGGGAAACUUUGAGAUGGCCUUGCAAAGGGUAUGGUAAUAAGCUGACGGACAUGGUCCUAACCACGCAGCCAAGUCCUAAGUCAACAGAUCUUCUGUUGAUAUGGAUGCAGUUCACAGACUAAAUGUCGGUCGGGGAAGAUGUAUUCUUCUCAUAAGAUAUAGUCGGACCUCUCCUUAAUGGGAGCUAGCGGAUGAAGUGAUGCAACACUGGAGCCGCUGGGAACUAAUUUGUAUGCGAAAGUAUAUUGAUUAGUUUUGGAGUACUCGUGGUCG
In short: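 Six replicate transformations of E. coli BL21(DE3) with a pET-22b(+) library were grown overnight at 37°C or 30°C. The library randomised all eight P1ex-region intron nucleotides, the intron lying in the knt kanamycin-resistance gene, and plates were LB agar with or without 25 μg/mL kanamycin plus 100 μg/mL carbenicillin, 50 μM IPTG and 0.2% rhamnose. Pooled colonies were amplicon-sequenced on an Illumina HiSeq 2500, and fitness is the DiMSum error-weighted combination of wild-type-normalised replicate fold changes, kanamycin versus none.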

| Sequence | self-splicing fitness (ln) (30 °C) | self-splicing fitness (ln) (37 °C) |
| --- | --- | --- |
| UUCUAGCAAUAUUACGUAUA | -1.28 ± 0.19 | -0.787 ± 0.25 |
| UUCUAGCAAUAUUACGUUGU | -3.15 ± 0.16 | -2.75 ± 0.18 |
| UUGAAGCAAUAUUACGAAGG | -1.42 ± 0.13 | -0.248 ± 0.17 |
| UUGAAGCAAUAUUACGACAA | 0.222 ± 0.087 | 0.511 ± 0.12 |
| UUGAAGCAAUAUUACGAGCA | -0.381 ± 0.12 | 0.224 ± 0.14 |
| UUGAAGCAAUAUUACGCCAU | -1.71 ± 0.086 | -1.56 ± 0.12 |
| UUGAAGCAAUAUUACGCCGC |  | -2.1 ± 0.43 |
| UUGAAGCAAUAUUACGCGGA | -1.12 ± 0.12 | -0.506 ± 0.14 |
| UUGAAGCAAUAUUACGCUCC | -4.04 ± 0.29 | -3.02 ± 0.31 |
| UUGAAGCAAUAUUACGGAAU | -3.36 ± 0.14 | -1.15 ± 0.12 |
| UUGAAGCAAUAUUACGGACU | 0.0826 ± 0.16 | 0.0377 ± 0.12 |
| UUGAAGCAAUAUUACGGCGU | -0.215 ± 0.11 | 0.00688 ± 0.13 |
| UUGAAGCAAUAUUACGUCGU | -1.04 ± 0.074 | -0.397 ± 0.11 |
| UUGAAGCAAUAUUACGUGUA | -1.7 ± 0.053 | -1.25 ± 0.074 |
| UUGCAGCAAUAUUACGAUGU | -3.3 ± 0.16 | -3.09 ± 0.3 |
| UUGCAGCAAUAUUACGAUUU | -2.64 ± 0.14 | -1.22 ± 0.13 |
| UUGCAGCAAUAUUACGCAAU | -3.95 ± 0.42 | -1.86 ± 0.14 |
| UUGCAGCAAUAUUACGCCCG | -0.555 ± 0.18 | -1.07 ± 0.18 |
| UUGCAGCAAUAUUACGCGCC | -2.28 ± 0.44 |  |
| UUGCAGCAAUAUUACGCGGG | -4.61 ± 0.39 | -2.03 ± 0.21 |
| UUGCAGCAAUAUUACGCUGC | -3.93 ± 0.29 | -2.97 ± 0.38 |
| UUGCAGCAAUAUUACGCUUU | -2.64 ± 0.12 | -2.11 ± 0.15 |
| UUGCAGCAAUAUUACGGACC | -2.34 ± 0.27 | -2 ± 0.26 |
| UUGCAGCAAUAUUACGGCCU | -1.03 ± 0.095 | -0.864 ± 0.18 |
| UUGCAGCAAUAUUACGGUAU | -1.86 ± 0.11 | -1.63 ± 0.14 |

| Sequence | self-splicing fitness (ln) (30 °C) | self-splicing fitness (ln) (37 °C) |
| --- | --- | --- |
| UUGCAGCAAUAUUACGGUGU | -4.16 ± 0.21 | -2.72 ± 0.18 |
| UUGCAGCAAUAUUACGUAUC | -3.83 ± 0.16 | -2.4 ± 0.15 |
| UUGCAGCAAUAUUACGUAUU | -2.57 ± 0.14 | -1.43 ± 0.15 |
| UUGCAGCAAUAUUACGUCGC | -3.09 ± 0.28 | -2.16 ± 0.35 |
| UUGCAGCAAUAUUACGUCGG | -0.191 ± 0.089 | -0.117 ± 0.11 |
| UUGCAGCAAUAUUACGUGAG | -0.139 ± 0.078 | -0.302 ± 0.099 |
| UUGCAGCAAUAUUACGUGGU | -2.14 ± 0.16 | -2.76 ± 0.28 |
| UUGCAGCAAUAUUACGUUUC | -3.59 ± 0.27 | -3.17 ± 0.34 |
| UUGGAGCAAUAUUACGACAG | -1.57 ± 0.15 | -1.23 ± 0.18 |
| UUGGAGCAAUAUUACGACCA | -3.12 ± 0.48 | -1.34 ± 0.35 |
| UUGGAGCAAUAUUACGAGUA |  | -2.45 ± 0.48 |
| UUGGAGCAAUAUUACGAUAU |  | -2.49 ± 0.32 |
| UUGGAGCAAUAUUACGCAUU | -1.87 ± 0.33 |  |
| UUGGAGCAAUAUUACGCUCA | -1.16 ± 0.15 | -1.53 ± 0.24 |
| UUGGAGCAAUAUUACGGACC |  | -2.55 ± 0.33 |
| UUGGAGCAAUAUUACGGACG | -3.11 ± 0.32 | -1.04 ± 0.34 |
| UUGGAGCAAUAUUACGGCUA | -1.23 ± 0.26 | -1.21 ± 0.41 |
| UUGGAGCAAUAUUACGGCUU | -1.18 ± 0.46 | -2.15 ± 0.48 |
| UUGGAGCAAUAUUACGGGCC |  | -1.33 ± 0.42 |
| UUGGAGCAAUAUUACGGGGC | -3.04 ± 0.28 | -3.26 ± 0.47 |
| UUGGAGCAAUAUUACGGGGU | -4.02 ± 0.4 | -2.44 ± 0.33 |
| UUGGAGCAAUAUUACGGUUC | -2.38 ± 0.2 | -2.86 ± 0.3 |
| UUGGAGCAAUAUUACGUAAA | -2.9 ± 0.29 | -0.99 ± 0.25 |
| UUGGAGCAAUAUUACGUACA |  | 0.204 ± 0.28 |
| UUGGAGCAAUAUUACGUCAA | -2.19 ± 0.25 | -0.538 ± 0.19 |
